The values below come from doi:10.1101/2025.08.06.668955, “High-Affinity, Structure-Validated and Selective Macrocyclic Peptide Tools for Chemical Biology Studies of Huntingtin” (bioRxiv, 2025).

Where a SMILES comes first, the peptide text is derived from it. Bridges are numbered along the chain shown (N, C = ends). Primed or numbered codes have the meaning given here. Where no end group is shown, it is not given here. [ ]: non-standard residue; d: D form. The star is where a group is joined. FITC″ = fluorescein isothiocyanate; ClAc = O=C(CCl)*

The test system of test [1] is HAP40. Briefly: Macrocycle precipitation (MP), co-purification of HAP40, LC-MS/MS. In kind it is binding, human. Particulars: HEK293T lysate versus HTT CRISPR knockout line. From the text:
To assess macrocycle selectivity and identify potential HTT interacting proteins, we performed LC-MS/MS analysis of the proteins in the MP eluates. To control for non-specific binding, we performed MPs using lysates from a HTT CRISPR knockout cell line ([Jung et al., 2021]). Across all macrocycles, HTT emerged as the most enriched protein after background subtraction (Figure 5b). Given we performed affinity purification using macrocycles targeting distinct HTT surfaces, we hypothesized that any real HTT protein binder might be co-purified with two or more macrocycles. […] In contrast, HAP40 was not enriched by HL5, consistent with its specificity for apo HTT.
Macrocycles were pre-conjugated to streptavidin beads (Cytiva, 17-5113-01) by incubating with a 30 μL slurry of beads per macrocycle purification (MP) in Lysis Buffer (10 mM Tris-HCl, pH 7.9, 150 mM NaCl, 0.1% NP-40, 1:500 protease inhibitor cocktail (Sigma-Aldrich), 1:1,000 benzonase nuclease, and 2 mM MgCl2) for 1 hour at 4°C. A concentration of 1.25 μM macrocycle was used for conjugation. After incubation, beads were washed three times with 500 μL Lysis Buffer to remove unbound macrocycles and resuspended in 500 μL of lysate at 4 mg/mL protein concentration.
Cells were harvested by centrifugation at 1,500 rpm for 5 minutes, washed twice with PBS, and snap-frozen. Cell pellets were then resuspended in 500 μL of Lysis Buffer (as described above) and incubated on an end-over-end rotator at 4°C for 1 hour. Lysates were clarified by centrifugation at 20,000g for 15 minutes at 4°C, and the supernatant was transferred to fresh 1.5 mL Eppendorf tubes. Protein concentration was determined by BCA assay (Thermo Fisher Scientific, 23225), yielding approximately 4 mg of protein on average. Lysates were diluted to a final concentration of 4 mg/mL for use, providing […] of total protein per MP.
Macrocycle-conjugated beads were incubated with 2 mg of lysate in Lysis Buffer for 1 hour at 4°C with rotation. After incubation, beads were collected by centrifugation at 3,000 rpm, and the flow-through was saved for analysis. Beads were then washed sequentially with 1 mL of Wash Buffer 1 (10 mM Tris-HCl, pH 7.9, 100 mM NaCl, 0.1% NP-40) and twice with Wash Buffer 2 (Wash Buffer 1 without detergent). Lastly, bound proteins were eluted from the beads with 200 μL of 0.5 M NH4OH and flash-frozen in liquid nitrogen.
All sample preparation, LC MS/MS data collection, and MS data searches were carried out at the SPARC BioCentre at The Hospital for Sick Children (Toronto, ON, Canada). […] Samples were analyzed by liquid chromatography tandem mass spectrometry (LC-MS/MS) using an EASY-nanoLC 1200 system with a 1 h analysis and an Orbitrap Fusion™ Lumos™ Tribrid™ Mass Spectrometer (Thermo Fisher Scientific). […]

Test [2] concerns the target T1, HTTQ23-HAP40 (Homo sapiens, UniProt P23610+P42858, INS38QQ).
T1 construct: Full-length wildtype HTT with a polyQ tract of 23 glutamines; FLAG; made in house; host or cells: Sf9 insect cells (baculovirus)
In words: Thermal shift assay (DSF), HTTQ23-HAP40. In kind it is binding. As to conditions: SYPRO Orange, 0.25 mg/mL protein, macrocycle up to 10 μM, 2.5% DMSO, n=3. The protocol: In an Axygen® 384-well PCR microplate (REF# PCR-384-LC480-W-NF, Corning), samples were mixed to yield a final concentration of 0.25 mg/mL Q54 or Q23/HAP40, a 5-pt 2-fold serial dilution of each macrocycle (top concentration of 10 μM, 2.5% DMSO), and 5X SYPRO™ Orange (CAT# S6650, Thermo Fisher Scientific) in buffer (20 mM HEPES pH 7.4, 150 mM NaCl, 1 mM TCEP, 0.005% Tween-20). Differential Scanning Fluorimetry (DSF) was performed using a LightCycler® 480 (Roche LifeSciences) set to a 4 °C/min temperature ramp (20–95 °C) and fluorescence detection at 580 nm. Melting temperatures (Tm) were obtained from the minima of the negative derivative of each curve. The propagated error of the thermal shift (ΔTm) was calculated from the standard deviation of each Tm mean (n=3). To ensure a maximally macrocycle-bound fraction (KD ~10 nM; ~100% bound) at 0.25 mg/mL HTT or HTT-HAP40 (~0.7 μM), the upper limit of macrocycle tested was 10 μM.
98 Supplementary Figure. 10. Thermal shift (ΔTm) induced by macrocycle binding. Melting
99 temperature of HTTQ54 (left) with HL5 or HL2 minus HTTQ54 with DMSO (46.5 °C), and (right)
100 HTTQ23-HAP40 with HD4, HL2, HL5, HHD2, HHD3, or HHL1 minus HTTQ23-HAP40 with DMSO
101 (51.0 °C). ΔTm significance was determined using an unpaired t-test with Welch correction,
102 comparing to the mean Tm of Q54 or Q23-HAP40 with DMSO; *P < 0.05, **P < 0.01, ***P <
103 0.001. The summary table reports the ΔTm and exact P value at the highest concentration tested
(§1) (1 picture or pasted object on this page, not shown here)

Test [3] relates to HTT-HAP40 or HTT (HL5). Briefly: FP displacement assay, FITC-labeled and unlabeled macrocycle pairs. In kind it is binding. As to conditions: FITC-labeled HHL1 on HTT-HAP40; biological singlet in technical triplicate.
Text: We further verified the specificity of binding of the macrocycles for HTT and HTT-HAP40 by displacement assay (Supplementary Figure 3) with FITC-labeled and unlabeled macrocycle pairs. All labelled macrocycles were displaced by their sequence-matched unlabeled macrocycle, with IC50 values in the nanomolar range.
57 Supplementary Figure 3. Displacement of fluorescently labeled macrocycles. a, Schematic for
58 assay. b, Each fluorescently labeled macrocycle is displaced by its unlabeled partner from HTT-
59 HAP40 or HTT (HL5) Conducted as a biological singlet in technical triplicate. c, Fluorescently
60 labeled HHL1 is displaced by itself and HHD3, but no other macrocycle.
as §1

In test [4] the target is T2, 40-kDa huntingtin-associated protein (HAP40), chain of the HTT-HAP40 complex used for cryo-EM (UniProt P23610 1-371).
T2 construct: 40-kDa huntingtin-associated protein (HAP40); model built from PDB 6X90; The HAP40 chain of m26, for the pairs that touch in the structures
T2 sequence (looked up): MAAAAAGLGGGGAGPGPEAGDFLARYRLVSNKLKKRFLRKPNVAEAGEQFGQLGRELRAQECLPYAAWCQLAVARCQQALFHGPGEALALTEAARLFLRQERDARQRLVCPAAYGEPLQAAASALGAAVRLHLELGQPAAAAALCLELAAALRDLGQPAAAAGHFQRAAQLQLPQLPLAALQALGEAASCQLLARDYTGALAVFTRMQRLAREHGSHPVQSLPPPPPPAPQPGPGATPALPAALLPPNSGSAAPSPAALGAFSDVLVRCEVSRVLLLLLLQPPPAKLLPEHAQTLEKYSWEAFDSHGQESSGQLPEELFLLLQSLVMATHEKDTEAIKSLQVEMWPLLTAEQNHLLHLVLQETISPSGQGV
Briefly: cryo-EM structure; HTT-HAP40 macrocycle complexes at 0.2 mg/ml in 25 mM HEPES pH 7.4, 150 mM NaCl, 0.025% CHAPS on graphene grids; Complex1 (HHL1, HL2, HD4) and Complex2 (HHD3, HL2, HD4). As to conditions: both partners purified.

The target of test [5] is C-terminally biotinylated HTTQ23 in complex with HAP40 (UniProt P23610 1-371, biotin on the C-terminal Avi-tag). In words: SPR. A general note: SPR reads the build-up and loss of mass on a sensor chip optically.
In test [6] the target is C-terminally biotinylated HTTQ23 (apo) (biotin on the C-terminal Avi-tag). Briefly: SPR.
Test [7] addresses HTTQ54 (apo). Briefly: FP.
In test [8] the target is Full-length wildtype HTT with a polyQ tract of 23 glutamines, apo form (HTTQ23). Briefly: FP.
The target in test [9] is HTTQ23-HAP40 (UniProt P23610 1-371). Briefly: FP.

Sequence of C-terminally biotinylated HTTQ23 in complex with HAP40 (P42858 other isoform, or with tags, fused parts or gaps, chain 1 of 2, one chain of several): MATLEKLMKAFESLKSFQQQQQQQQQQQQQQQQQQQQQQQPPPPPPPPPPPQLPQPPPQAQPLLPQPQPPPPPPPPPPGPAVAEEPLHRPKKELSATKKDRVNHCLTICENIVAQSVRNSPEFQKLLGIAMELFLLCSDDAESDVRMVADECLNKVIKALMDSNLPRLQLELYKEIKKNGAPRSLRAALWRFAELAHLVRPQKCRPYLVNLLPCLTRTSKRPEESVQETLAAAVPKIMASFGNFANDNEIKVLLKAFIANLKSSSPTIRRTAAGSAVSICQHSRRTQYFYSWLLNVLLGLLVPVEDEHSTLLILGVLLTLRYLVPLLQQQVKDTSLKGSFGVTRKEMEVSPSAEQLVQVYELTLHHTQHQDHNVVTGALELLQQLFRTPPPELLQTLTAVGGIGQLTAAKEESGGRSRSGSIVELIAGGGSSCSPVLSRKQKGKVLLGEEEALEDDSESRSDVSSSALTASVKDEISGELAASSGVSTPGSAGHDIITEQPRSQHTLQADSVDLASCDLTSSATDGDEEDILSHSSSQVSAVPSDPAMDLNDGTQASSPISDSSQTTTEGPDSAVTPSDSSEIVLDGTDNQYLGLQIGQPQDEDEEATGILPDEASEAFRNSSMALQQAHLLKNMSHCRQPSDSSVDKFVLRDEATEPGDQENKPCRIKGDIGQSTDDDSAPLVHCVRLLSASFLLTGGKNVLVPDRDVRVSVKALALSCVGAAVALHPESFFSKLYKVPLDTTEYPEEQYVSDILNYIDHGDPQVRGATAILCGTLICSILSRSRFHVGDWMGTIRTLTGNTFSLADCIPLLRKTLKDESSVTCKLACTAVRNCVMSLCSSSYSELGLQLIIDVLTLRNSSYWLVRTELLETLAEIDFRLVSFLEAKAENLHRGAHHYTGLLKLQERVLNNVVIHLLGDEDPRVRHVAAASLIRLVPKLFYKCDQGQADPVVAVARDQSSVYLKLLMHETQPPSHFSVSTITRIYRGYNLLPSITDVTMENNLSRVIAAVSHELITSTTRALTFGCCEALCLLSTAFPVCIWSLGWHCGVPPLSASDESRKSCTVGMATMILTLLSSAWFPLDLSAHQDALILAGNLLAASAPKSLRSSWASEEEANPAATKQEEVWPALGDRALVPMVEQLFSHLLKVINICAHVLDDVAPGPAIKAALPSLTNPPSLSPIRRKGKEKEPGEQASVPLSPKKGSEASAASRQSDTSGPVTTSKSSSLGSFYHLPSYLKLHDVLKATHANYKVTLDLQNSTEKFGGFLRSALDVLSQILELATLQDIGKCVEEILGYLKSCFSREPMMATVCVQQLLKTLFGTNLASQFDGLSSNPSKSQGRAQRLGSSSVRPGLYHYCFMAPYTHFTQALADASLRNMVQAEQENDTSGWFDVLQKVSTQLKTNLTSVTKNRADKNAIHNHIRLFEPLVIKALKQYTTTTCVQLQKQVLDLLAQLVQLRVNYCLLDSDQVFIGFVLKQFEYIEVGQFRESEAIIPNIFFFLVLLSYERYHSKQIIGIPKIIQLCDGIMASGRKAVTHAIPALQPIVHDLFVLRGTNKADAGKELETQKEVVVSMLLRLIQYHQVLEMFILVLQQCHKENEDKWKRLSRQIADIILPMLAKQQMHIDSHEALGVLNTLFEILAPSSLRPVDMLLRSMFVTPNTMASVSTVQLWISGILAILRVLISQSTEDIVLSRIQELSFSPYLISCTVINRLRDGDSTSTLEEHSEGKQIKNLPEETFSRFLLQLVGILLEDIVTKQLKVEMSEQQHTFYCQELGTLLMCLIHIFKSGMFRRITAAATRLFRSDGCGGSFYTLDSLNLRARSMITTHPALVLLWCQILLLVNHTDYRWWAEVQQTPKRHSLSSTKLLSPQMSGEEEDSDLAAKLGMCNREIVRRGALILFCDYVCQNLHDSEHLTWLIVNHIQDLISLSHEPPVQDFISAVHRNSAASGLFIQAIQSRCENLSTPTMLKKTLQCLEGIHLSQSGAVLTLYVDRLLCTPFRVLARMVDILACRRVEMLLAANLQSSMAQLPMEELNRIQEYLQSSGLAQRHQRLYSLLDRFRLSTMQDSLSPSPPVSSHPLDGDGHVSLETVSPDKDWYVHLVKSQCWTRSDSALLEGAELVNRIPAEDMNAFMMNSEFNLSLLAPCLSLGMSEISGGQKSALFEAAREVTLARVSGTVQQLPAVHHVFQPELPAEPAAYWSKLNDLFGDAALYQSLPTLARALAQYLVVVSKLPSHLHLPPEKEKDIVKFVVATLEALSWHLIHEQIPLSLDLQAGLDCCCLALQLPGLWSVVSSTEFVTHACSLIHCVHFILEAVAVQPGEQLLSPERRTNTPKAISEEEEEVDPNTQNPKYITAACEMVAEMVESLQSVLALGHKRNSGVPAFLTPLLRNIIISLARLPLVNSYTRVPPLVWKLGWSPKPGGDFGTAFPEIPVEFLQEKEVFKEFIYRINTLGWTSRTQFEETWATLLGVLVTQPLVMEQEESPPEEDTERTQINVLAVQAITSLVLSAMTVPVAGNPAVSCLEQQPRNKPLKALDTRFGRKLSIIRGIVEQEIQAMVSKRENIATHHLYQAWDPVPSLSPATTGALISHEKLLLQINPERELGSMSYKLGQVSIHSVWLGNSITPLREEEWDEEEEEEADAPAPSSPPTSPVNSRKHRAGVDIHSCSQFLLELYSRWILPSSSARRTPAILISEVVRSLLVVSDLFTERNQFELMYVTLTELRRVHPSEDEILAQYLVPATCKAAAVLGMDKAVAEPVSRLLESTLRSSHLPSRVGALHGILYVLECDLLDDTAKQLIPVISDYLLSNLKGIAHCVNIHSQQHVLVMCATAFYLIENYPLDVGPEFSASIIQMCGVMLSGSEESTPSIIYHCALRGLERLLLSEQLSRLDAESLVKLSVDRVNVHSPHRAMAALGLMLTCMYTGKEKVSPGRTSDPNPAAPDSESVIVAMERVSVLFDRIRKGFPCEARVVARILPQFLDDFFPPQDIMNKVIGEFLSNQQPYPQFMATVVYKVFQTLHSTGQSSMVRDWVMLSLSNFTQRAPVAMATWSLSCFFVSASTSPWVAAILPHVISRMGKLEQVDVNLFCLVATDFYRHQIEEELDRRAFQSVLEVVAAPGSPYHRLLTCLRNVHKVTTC
Sequence of C-terminally biotinylated HTTQ23 (apo) (biotin on the C-terminal Avi-tag) (P42858 other isoform, or with tags, fused parts or gaps): as the sequence (P42858 other isoform, or with tags, fused parts or gaps, chain 1 of 2, one chain of several) above
T1 sequence (P42858 with tags, fused parts or gaps INS38QQ, one chain of several): as the sequence (P42858 other isoform, or with tags, fused parts or gaps, chain 1 of 2, one chain of several) above, with H2311Y, I2788V counted along it
Sequence of Full-length wildtype HTT with a polyQ tract of 23 glutamines, apo form (HTTQ23) (P42858 other isoform, or with tags, fused parts or gaps): as the sequence (P42858 other isoform, or with tags, fused parts or gaps, chain 1 of 2, one chain of several) above

As for `CC[C@H](C)[C@@H]1NC(=O)[C@H](Cc2c[nH]c3ccccc23)NC(=O)[C@H](Cc2c[nH]c3ccccc23)NC(=O)[C@H](CC(N)=O)NC(=O)[C@H](CC(N)=O)NC(=O)[C@H](CCC(N)=O)NC(=O)[C@H](Cc2c[nH]c3ccccc23)NC(=O)[C@H](Cc2c[nH]cn2)NC(=O)[C@H](CCCNC(=N)N)NC(=O)[C@H]([C@@H](C)O)NC(=O)[C@@H](Cc2ccc(O)cc2)NC(=O)CSC[C@@H](C(N)=O)NC(=O)[C@H](Cc2ccccc2)NC(=O)[C@H](CCC(=O)O)NC(=O)[C@H](Cc2c[nH]cn2)NC(=O)[C@H](Cc2ccc(O)cc2)NC(=O)[C@H](CC(C)C)NC1=O` [HHD3] ({CH2CO}-[dY]TRHWQNNWWILYHEFC-NH2; thioether N-17; C-terminus assumed), the “Enrichment of HAP40 in macrocycle pulldowns” value in test [1] is recorded as “consistently enriched”. Moreover, the “Thermal shift (ΔTm) of HTTQ23-HAP40 induced by macrocycle” value in test [2] is “stabilized”. Moreover, the “Displacement of fluorescently labeled HHL1 by unlabeled macrocycle” value in [3] is recorded as “displaced”.
On to `CC[C@H](C)[C@@H]1NC(=O)[C@H](CC(C)C)NC(=O)[C@H](Cc2ccc(O)cc2)NC(=O)CSC[C@@H](C(N)=O)NC(=O)[C@@H]2CCCN2C(=O)[C@H](C(C)C)NC(=O)[C@H](CCC(=O)O)NC(=O)[C@H](C(C)C)NC(=O)[C@H](Cc2ccccc2)NC(=O)[C@H](C(C)C)NC(=O)[C@H](Cc2ccccc2)NC(=O)[C@H](Cc2c[nH]c3ccccc23)NC(=O)[C@H](CC(N)=O)NC(=O)[C@H](Cc2ccccc2)NC(=O)[C@H](CO)NC(=O)[C@H](CO)NC(=O)[C@H](CCCNC(=N)N)NC1=O` [HHL1] ({CH2CO}-YLIRSSFNWFVFVEVPC-NH2; thioether N-17; C-terminus assumed), for which the “Thermal shift (ΔTm) of HTTQ23-HAP40 induced by macrocycle” value in test [2] is given as “stabilized”. Also, the “Displacement of fluorescently labeled HHL1 by unlabeled macrocycle” value in test [3] is reported as “displaced”.

B1: HHL1 (peptide)
peptide: {CH2CO}-YLIRSSFNWFVFVEVPC
modifications: thioether N-17 (inferred)
notes: macrocyclic peptide selected by RaPID on HTT-HAP40; also called macrocycle HHL1; source: synthetic peptide (Fmoc SPPS, RP-HPLC), without tags
One may read the Kd as the constant that tells how readily two partners part at equilibrium. Consider B1, for which, in [4], the binding result is “binds”. In test [5], this molecule came in with a Kd of 7 nM.

B2: HD4 (peptide)
peptide: ClAc-[dY]DIWCETNKQTGILVLC
modifications: thioether (positions not given here); also: thioether to downstream Cys, which of Cys5/Cys17 not given here
With B2, the values for the Kd in [6] and in [5] were 4.1 nM and 2.1 nM, respectively.

B3: HHD3 (peptide)
peptide: {CH2CO}-[dY]TRHWQNNWWILYHEFC
modifications: thioether N-17 (inferred)
notes: macrocyclic peptide selected by RaPID on HTT-HAP40; printed with a superscript D before the first Y (D-tyrosine); also called macrocycle HHD3; source: synthetic peptide (Fmoc SPPS, RP-HPLC), without tags
For B3, the binding result in [4] is listed as “binds”.
For the molecule {CH2CO}-YTHFQVAPWIQSLC (thioether N-14 (inferred)) [HL5], binding in test [6] was characterised by a dissociation constant (Kd) of 10 nM.

B4: FITC-labeled HD4 (peptide)
peptide: ClAc-[dY]DIWCETNKQTGILVLC-{FITC″}
modifications: thioether (positions not given here); also: thioether to downstream Cys, which of Cys5/Cys17 not given here
Take B4: the figures for the dissociation constant (Kd) in test [7], in test [8] and in [9] were 1.5 nM, 7.3 nM and 1.6 nM, respectively.
